± gives the standard deviation of the averaged measurements.
The sequences below were run on ATP (assay: switch fluorescence ratio, 500 uM ATP over buffer (Cy3 cluster intensity, sum of 5 cycles each) (fold (ratio)); higher = stronger signal-on switching upon ATP binding; sequences stand for … in TCGTCGGCAGCGTCAGATGTGTATAAGAGACAGTTTTTTTTTTTTTTTTTTTTTTTTT…TC). Conditions: aptamer strand: ATP DNA aptamer (quencher-CACCTGGGGGAGTATTGCGGAGGAAGG + anchor), 100 nM annealed; ATP concentration: 500 uM.
Summary of the method: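 Values give the fluorescence ratio for each switch-domain sequence, averaged from per-cluster ratios of summed target-cycle to summed buffer-cycle Cy3 intensity. The Cy3-labelled switching-strand clusters sat on a modified Illumina MiSeq flow-cell, were annealed to 100 nM quencher-labelled ATP aptamer, and were imaged in selection buffer, then after 15 min with 500 uM ATP at 22 °C. Five cycles ran with NaOH stripping and re-annealing between them, and clusters outside 100-1000 RFU were excluded.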
GAAATCGCCA showed a switch fluorescence ratio of 1.022 ± 0.007. In the case of GAAATCGGAT, the switch fluorescence ratio is reported as 0.972 ± 0.016. For GAAATGATGG, the switch fluorescence ratio was 0.978 ± 0.0013. With GAAATGGGGG the switch fluorescence ratio was 0.991 ± 0.028. Sequence GAAATTAAGC has a switch fluorescence ratio of 1.06 ± 0.057. GAAATTACAG gave a switch fluorescence ratio of 0.994 ± 0.016. GAAATTAGCC was tested, and the switch fluorescence ratio was 1.053 ± 0.0092. Work on GAAATTAGTT yielded a switch fluorescence ratio of 0.991 ± 0.018. GAAATTATTA was tested, and the switch fluorescence ratio was 0.9919 ± 0.0075. With GAAATTGCAT the switch fluorescence ratio was 0.996 ± 0.02. For GAAATTGGTT, the switch fluorescence ratio was 0.988 ± 0.067. For GAAATTTTGC, the switch fluorescence ratio was 0.995 ± 0.033. GAACGGCTCG gave a switch fluorescence ratio of 1.023 ± 0.0038. GAACGTTGGG showed a switch fluorescence ratio of 0.993 ± 0.033. With GAACTAGGTC the switch fluorescence ratio was 1.01 ± 0.021. GAACTGATGT was tested, and the switch fluorescence ratio was 1 ± 0.018. In the case of GAACTGTATG, the switch fluorescence ratio is reported as 1.05 ± 0.056. For GAACTTCTGG, the switch fluorescence ratio was 0.985 ± 0.038. GAACTTTTTA showed a switch fluorescence ratio of 0.981 ± 0.011. Work on GAAGAAAATT yielded a switch fluorescence ratio of 1.01 ± 0.014. In the case of GAAGAATGGT, the switch fluorescence ratio is reported as 0.975 ± 0.013. Work on GAAGAATGTG yielded a switch fluorescence ratio of 1.01 ± 0.0082. GAAGAGGGAT showed a switch fluorescence ratio of 0.981 ± 0.049. GAAGATACGG gave a switch fluorescence ratio of 1.03 ± 0.032. GAAGATTTCT gave a switch fluorescence ratio of 0.976 ± 0.03. For GAAGCTAGAA, the switch fluorescence ratio was 1.52 ± 0.3. For GAAGGAAAAG, the switch fluorescence ratio was 0.992 ± 0.099. GAAGGATAGC showed a switch fluorescence ratio of 0.998 ± 0.018. GAAGGATAGG showed a switch fluorescence ratio of 0.975 ± 0.029. For GAAGGCCCGG, the switch fluorescence ratio was 0.99 ± 0.062. Sequence GAAGGGAAAG has a switch fluorescence ratio of 1.02 ± 0.012. For GAAGGGAGAG, the switch fluorescence ratio was 0.993 ± 0.031. GAAGGGCGCG showed a switch fluorescence ratio of 1.029 ± 0.0034. With GAAGGGGATT the switch fluorescence ratio was 1.015 ± 0.01. GAAGGGGGAT showed a switch fluorescence ratio of 1.02 ± 0.051. GAAGGGGGTA showed a switch fluorescence ratio of 0.996 ± 0.028. GAAGGGTATT gave a switch fluorescence ratio of 1.01 ± 0.026. With GAAGGGTGCG the switch fluorescence ratio was 1.02 ± 0.034. With GAAGGTGAAT the switch fluorescence ratio was 1.04 ± 0.022. GAAGGTTAGG showed a switch fluorescence ratio of 0.9866 ± 0.0081. Work on GAAGTACGTC yielded a switch fluorescence ratio of 1.23 ± 0.18. GAAGTAGAGG was tested, and the switch fluorescence ratio was 1 ± 0.032. Sequence GAAGTAGCAG has a switch fluorescence ratio of 0.984 ± 0.025. Sequence GAAGTAGTGG has a switch fluorescence ratio of 1.01 ± 0.014. With GAAGTATGAT the switch fluorescence ratio was 0.962 ± 0.042. GAAGTCGAAT was tested, and the switch fluorescence ratio was 1.014 ± 0.0091. In the case of GAAGTCGGAT, the switch fluorescence ratio is reported as 0.979 ± 0.019. In the case of GAAGTTTAAA, the switch fluorescence ratio is reported as 1.02 ± 0.035. GAAGTTTGAT was tested, and the switch fluorescence ratio was 0.9867 ± 0.0011. Sequence GAATAAAGAG has a switch fluorescence ratio of 0.966 ± 0.034. GAATAACTGG gave a switch fluorescence ratio of 0.993 ± 0.084. Work on GAATAAGGGA yielded a switch fluorescence ratio of 1 ± 0.014. Work on GAATAAGTCC yielded a switch fluorescence ratio of 1.04 ± 0.028. GAATAATGAT was tested, and the switch fluorescence ratio was 0.989 ± 0.028. GAATACGGGG was tested, and the switch fluorescence ratio was 1.06 ± 0.044. GAATAGAGGT was tested, and the switch fluorescence ratio was 1.02 ± 0.037. With GAATATAATG the switch fluorescence ratio was 0.978 ± 0.032. GAATATTTAG gave a switch fluorescence ratio of 0.958 ± 0.015. Work on GAATATTTCT yielded a switch fluorescence ratio of 1.02 ± 0.021. GAATCAGTGT showed a switch fluorescence ratio of 1 ± 0.022. With GAATCGGCAT the switch fluorescence ratio was 1.02 ± 0.039. In the case of GAATCGGGGA, the switch fluorescence ratio is reported as 1.012 ± 0.0031. GAATCTGTGT gave a switch fluorescence ratio of 0.998 ± 0.031. GAATCTTGGA was tested, and the switch fluorescence ratio was 0.99 ± 0.015. GAATGAGTCT gave a switch fluorescence ratio of 1.01 ± 0.091. In the case of GAATGCTCAC, the switch fluorescence ratio is reported as 1.14 ± 0.064. With GAATGGCCAG the switch fluorescence ratio was 0.992 ± 0.034. GAATGGGACG was tested, and the switch fluorescence ratio was 1 ± 0.021. With GAATGGGATC the switch fluorescence ratio was 0.9698 ± 0.0059. GAATGGGGCA showed a switch fluorescence ratio of 0.978 ± 0.032. GAATGGGGTC gave a switch fluorescence ratio of 0.976 ± 0.011. For GAATGGGGTT, the switch fluorescence ratio was 0.98 ± 0.026. Sequence GAATGGGTAG has a switch fluorescence ratio of 0.9961 ± 0.0042. GAATGGTTTT showed a switch fluorescence ratio of 0.971 ± 0.084. GAATGTAGTT showed a switch fluorescence ratio of 1.01 ± 0.017. GAATGTATGG gave a switch fluorescence ratio of 1.04 ± 0.049. For GAATTAAGTT, the switch fluorescence ratio was 1.01 ± 0.033. GAATTACGGC was tested, and the switch fluorescence ratio was 1.04 ± 0.069. Work on GAATTAGCTT yielded a switch fluorescence ratio of 0.983 ± 0.023. With GAATTAGTGT the switch fluorescence ratio was 0.984 ± 0.019. GAATTATGGC gave a switch fluorescence ratio of 1.01 ± 0.085. GAATTATTAA showed a switch fluorescence ratio of 0.9922 ± 0.0026. Work on GAATTCGGCT yielded a switch fluorescence ratio of 1.0193 ± 6.4e-05. GAATTCTCCG showed a switch fluorescence ratio of 1.18 ± 0.012. Sequence GAATTCTCGT has a switch fluorescence ratio of 0.969 ± 0.024. GAATTCTGAG was tested, and the switch fluorescence ratio was 1.02 ± 0.04. In the case of GAATTGGATG, the switch fluorescence ratio is reported as 0.965 ± 0.052. GAATTGGGAG gave a switch fluorescence ratio of 0.998 ± 0.02. In the case of GAATTGGTTT, the switch fluorescence ratio is reported as 0.999 ± 0.017. GAATTGTTCG showed a switch fluorescence ratio of 0.985 ± 0.051. GAATTTGTTT gave a switch fluorescence ratio of 0.984 ± 0.035. For GAATTTTCG, the switch fluorescence ratio was 1.009 ± 0.0097. GAATTTTTGA showed a switch fluorescence ratio of 0.991 ± 0.021. GACAAAGATT showed a switch fluorescence ratio of 1.0037 ± 0.00037. GACAATAGGC gave a switch fluorescence ratio of 1.1 ± 0.045. In the case of GACAATGGTT, the switch fluorescence ratio is reported as 1 ± 0.027. GACAATTCGG gave a switch fluorescence ratio of 1.01 ± 0.021. With GACAGAAGGC the switch fluorescence ratio was 1 ± 0.052. GACAGATATG was tested, and the switch fluorescence ratio was 0.979 ± 0.081. GACAGCCCAG showed a switch fluorescence ratio of 1 ± 0.019.
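Also: ATP exposure 15 min at 22 °C before imaging.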
